# Data as given in a protein production outcome set (Wang et al. 2014).
# Experiment: label from the status in PepcDB records
row,Sequence,protein production
1,MSEEQDKQRNTRKKENNRLLTKAAIIGVVAGILGGGIAYGGLSAANLNSNTSSSTASSSSSNTGENGSVTTSSSGTTKVNKSKTTSGTMTSAYKKVQNAVVSVLNYKYTSSSSSSSDIYSMFGYGDSDSSDSSSSKKSLTLYSEGSGVIYTTANGKGYIVTNNHVISGAAKVKVILASGKTIAAKVVGKDSTSDLAVLSIDSKYVTQTASFGDSRSLLSGQTVIAIGSPEGSEYASTVTQGIISSPSRTITYNSNQMTVIQTDAAINSGNSGGPLVNSDGQVIGINSMKLSSSSSGDSVEGMGFAIPSNEVVTIVNQLVKKGKITRPQLGIKVAAIADLNSYYKKQLGISTSLKKGLYVASVTSGSAAASAGIKKGDVITAADGKTVNDVATLHSILYSHNVGDKVKITVNRNGKTMTFTVTLQASN,failed
2,MSEGFSSSSIQELYQSLKEITNNADVELFEDRITKLDFESTDEPKHANDIIKDRFLRPSNALPWSLLDMVQDVPHTSSPEDCSGKLDYKELLKVPDPINRTSYQFKRTGLEGKISGYKEEVDLKEVANANASNSLSITRSINHNQNSVRGSTAQLPFTPGGIPMKSVKTDSEQNGSSTMANATKLLHKDGQGLFDIPEGMNRGIKPMDSPAENEDQNGQFKELKQLNEIDNELDIRIEANEAKLKEEEKSAKSISEEIMEEATEETTADNADDAEIDELLPIGIDFGRTKPVSKSVPVKKEWAHVVDLNHKIENFDELIPNPARSWPFELDTFQKEAVYHLEQGDSVFVAAHTSAGKTVVAEYAIAMAHRNMTKTIYTSPIKALSNQKFRDFKETFDDVNIGLITGDVQINPDANCLIMTTEILRSMLYRGADLIRDVEFVIFDEVHYVNDQDRGVVWEEVIIMLPQHVKFILLSATVPNTYEFANWIGRTKQKNIYVISTPKRPVPLEINIWAKKELIPVINQNSEFLEANFRKHKEILNGESAKGAPSKTDNGRGGSTARGGRGGSNTRDGRGGRGNSTRGGANRGGSRGAGAIGSNKRKFFTQDGPSKKTWPEIVNYLRKRELLPMVVFVFSKKRCEEYADWLEGINFCNNKEKSQIHMFIEKSITRLKKEDRDLPQILKTRSLLERGIAVHHGGLLPIVKELIEILFSKGFIKVLFATETFAMGLNLPTRTVIFSSIRKHDGNGLRELTPGEFTQMAGRAGRRGLDSTGTVIVMAYNSPLSIATFKEVTMGVPTRLQSQFRLTYNMILNLLRIEALRVEEMIKYSFSENAKETLQPEHEKQIKVLQEELQTIEYKSCEICDNDIEKFLELMLAYKEATVNLMQEMVKSPSILHILKEGRLVAFRDPNDCLKLGFVFKVSLKDAVCVIMTFTKPYKLPNGEPNHLIYFPKADGYRRRNFPKFQKTDFYMEEVPVTAIEVITKRKFAAPLGKVIKKDVAALNEFNAETNNILDGKTLKEAINIEKQGLKIHQILLDRTNIRDEIFKLKSIKCPNLSQHIVPKFKAHVIKKKIEELYHLMSDQNLSLLPDYEKRLAVLKDTEFIDQNHNVLLKGRVACEINSGYELVLTELILDNFLGSFEPEEIVALLSVFVYEGKTREEEPPIVTPRLAKGKQRIEEIYKKMLCVFNTHQIPLTQDEAEFLDRKRFAMMNVVYEWARGLSFKEIMEMSPEAEGTVVRVITWLDEICREVKTASIIIGNSTLHMKMSRAQELIKRDIVFAASLYL,failed
3,MSEKAKKGFKMPSSYTVLLIIIAIMAVLTWFIPAGAFIEGIYETQPQNPQGIWDVLMAPIRAMLGTHPEEGSLIKETSAAIDVAFFILMVGGFLGIVNKTGALDVGIASIVKKYKGREKMLILVLMPLFALGGTTYGMGEETMAFYPLLVPVMMAVGFDSLTGVAIILLGSQIGCLASTLNPFATGIASATAGVGTGDGIVLRLIFWVTLTALSTWFVYRYADKIQKDPTKSLVYSTRKEDLKHFNVEESSSVESTLSSKQKSVLFLFVLTFILMVLSFIPWTDLGVTIFDDFNTWLTGLPVIGNIVGSSTSALGTWYFPEGAMLFAFMGILIGVIYGLKEDKIISSFMNGAADLLSVALIVAIARGIQVIMNDGMITDTILNWGKEGLSGLSSQVFIVVTYIFYLPMSFLIPSSSGLASATMGIMAPLGEFVNVRPSLIITAYQSASGVLNLIAPTSGIVMGALALGRINIGTWWKFMGKLVVAIIVVTIALLLLGTFLPFL,failed
4,MSEKMRRIVEAAGGIVWRWKAGSDIANDPAIASSKSAQEQLDSIEVCIVHRPKYDDWSWPKGKLEQNETHRHAAVREIGEETGSPVKLGPYLCEVEYPLSEEGKKTRHSHDCTADTKHTLYWMAQPISADDAEHLLDAFGPVHRADVGEINDIVWVSVREARKILSHSTDKDTLAVFVDRVQEGAATAQNLLIVRHAKAESRKSWKGTDANRPITPKGAAMAFALNRELACFNPTRLATSPWLRCQETLQVLSWQTERPMEHINTLTEDAFAEHPAVSWLAFREQITQTLNSRETTAICMHRPVIGGMYDHLRGLCARKQLAKQLIAKSPYMPTGTAMSLFIIDTPQGPSIIDIQKVSPIVY,failed
5,MSELNKEMTLLPPPELVQYVGGDFKKVGKEFLKHFIQIGALKSNEKVLDVGCGVGRMAVPLMNYLNDDGAYYGFDLFKDGITWCQNNISTMRNNFHFEHVDIYNQFYNPEGKEDASQYRFPYEDGTFDFIFLTSVFTHLLPKELEHYVSEIVRVLKKDGRCFITFFLINPESSYYLNAGQSTLGFYHRIENCYVVNKDIPNFAVAYPETDICNLLNKYGLEIINKPHYGLWCGRHEYTSYQDIVLTKKSFLEHHHHHH,not failed
6,MSELQILIFNAAVFSILAVYHYWKNRKLNIAFYILAYYSICAWGALLYHEHELFHYMRGRETYSIIPFLYLIPVIFLFAYPIIRYDNTRITRIETLNSNFFINLVWILLFIQIVLYIILFPSFLKAILSSNIGDYRNDTYDESEIVQFPNYFFNILCRLYMGARNVVILIAAYGLLVIKTHRKLLKIFLVTSLCFPVYMFTAYASRAVMIMTFFFLVFIFVFLSVFMNVGLKKKIVSYLILILVPISSAFILISNSRFGNLATYMFYRYLGESFNNYNTHFFYELKGNTWGEAYFVFFRKLMGISSNFKTTREKWEWLDNITGVDTHVFYTFVGGLNIEFGFVGTIVIGLLLSFFMVKKMRPYNVLTLPKFIALGMLAYTLINGVFFFVLQGDWGNLEILFTLFFCFLFSKYRTRKYINK,failed
7,MSENENSQEKNELLDALNSVEEVNVGDVVKGEVLAIDDDKQVIVGIQGTGVEGVVPLKELSTQRVDDVNEAAKVGDVLDLVVISRIGSDKENGSYLLSHRRLEARKVWDDVEKEYEAGHTIKAPVTQVVKGGLVVDAGVRGFIPASMIDDHYVEDLNAYKGQELELKIIEIEPSENRLILSHRAVVEKQREAQREEALKTLQAGDVVEGKVARLTNFGAFVDLGGIDGLVHVSEISYERVEKPADVLKVGQEVTVKILSVDADRERVSLSIKATLPEPWDGIEEKAPQGAVLDGKVKRLTSFGAFVEVFPGVEGLVHISQISHQHIATPNDVLKVGQEIKVKVLDVRPDEKRLALSIKALEEKPQTADDDNESQPERRSNNNRRRNNNRDNRTASERSTANAPEESTGFTLGDLIGDELKNAESNNDENLEHHHHHH,failed
8,MSENEPAQMIEGRYRIVRNIAEGGMATVYEAIDERLGRTVAIKVMHTQLAKGPHREQFVERFRREANSAASIANPHIVQVYDTGEFNGLDFLVMEYVHGVNLRHEMNAQGTFSVRETLRVVAETLDGLASAHRAGVVHRDIKPENILINDRGHVQITDFGLAKAASQATLSSTGMLLGTAAYLAPEMIENNQATAQGDLYSVGIMAWEMLTGKVPFDSDNPVTLVFKHVHEDVPSVATVCQGIDPSVAAFIAHLTARQVDVRPTDGAAAAEELSQLAAKLPLEAWQYRLHAEPIGGDHTDATAAALVGNIAEQAPLTGVPAGAATFEPSVPAFLADDVASNTADTGGAADVNPPAPPVAPTTALDSSTPADASAPHKTQIMAQSGSETQVLPQAGDAFTRAPALSDEPDVASNGTGPKKQRSKNRFIVLVIVLVLAAIGGTAGWWWFAGPGSYWSVPKPDDVTCDANAGTECSLTGADWATYESTLKAFGIPYKTHEEYSDDVAEGKIISSSVNKTKAVVNSHISKRANQELTVVVSKGVRMATIPKDILDANSANGKNPLNALKKAGFDNVKHDESKDEYSMDTPQGVALTISPDPGTTAKHNDEVTITLSKGPMPVTMPDIVGKTQYEMQAALGELKLTANVTEQYDDKVEAGQVISASQEAGAQLKWGDSVDVVISKGPEMATIPSGLVGKQESAVTKTLESLGFKVKADKVLGGLFGTVRTVKSGDTDLSNGGKTRLRDANGNPTVITLTIV,failed
9,MSENTKVEAKRVFIGAGCNRVVNNVSWGASGLVSFGAQNAVAVFCPKTAQILTTLPGHKASVNCTHWLPTSKFAFKAKKLDRQYLLSGDSDGIIILWELSTLNNDQQWRHVLQLPLSHKKGVTCITAYMVSETDAMFASASSDGVVNVWDVSFPSQPSEECKVVCLDSICVDTKAIVTLSLAELPQNPGRFALALGGLDNKIKLYSGERTGKFTSVCELKGHTDWIRSLDFSLPLHTTEEIPNSIMLVSSSQDKVIRIWKLVLVGDVGSWRREITLASYIEGPVFVSGTFTYQISVESVLIGHEDWVYSVEWQPPVIDFIDGRLVNHQPLSILSASMDKTMMIWRPEKKTGVWVNVVCVGELSHCALGFYGGHWSPNSLSILAHGYGGAFHLWRNVSSSKESENWQMQKVPSGHFAAVTDVTWARTGEYLLSVSQDQTTRVFSAWKNDEGNEAEDEHWHELARPQVHGHDINCVAMVQGKGNHRFVSGAEEKVVRVFEAPLSFLKTLNHTCAGGEGSFPEDLQADVQVLGANMSALGLSQKPIYLHSSSEPLERNGGGEGLDTFETVPEAAPAELKEPPIEDQLAFHTLWPESHKLYGHGNELFSLCSDHKGNLVASSCKAQSASMAEIWLWEVGTWKAVGRLQSHSLTVTHLEFSYDDTLLLSVSRDRHFSVFSIQRTDNGEVSHKLMAKVEAHKRIIWACSWNPFGHQFATSSRDKTVKIWSVENDARIKQILVLPPFGSSVTAVAWTGLDRNEKSGCVAVGMESGLIELSNVKIIETEEGTTATAALALRLEPFMCHVSAVNRLAWRPTEKCESNQSLRWLTSCGDDNCVRVFNFKF,failed
10,MSEPHRDTKIGQVLMNRYQLTELIGKGSMGRVYRAEDILLGGVPVAVKFLSQTLLNDRMKTRFAQEARAGALLGQKSMHVVRVLDYGMNNEEIPFYVMEFLEGENLSDLLLEEPLPLSRFLRIARHMCLGLQVAHEGIIIEGQKCPIIHRDIKPSNVLVIQDGTMGELAKLLDFGIAKFLGDVPEKGQTSSFMGTLAYCSPEQIEGRELDHRSDIYSLGITMYELLTGKMPIQAESHSIGSWFKAHHFQKPIPFNVASPGLHLPPALEELIMACMAKSPSDRPQNVAEIIKVLTALEDQFGSTRVTQPGVEVGAKVSQPLERQSQPPVALATVEEVCWQSVWPADKPVAEIVFPMPLYAQRESAASLWVMLPRSEIDRRMLNLRYNQFLFTTSPHPMILWITAIYDPQQGPRWLPCYLDMKLPRNQELCLLLSETGYYPLLFFSLEDPQHCINVRTFTIATFQRQLLRDWLQTSKNLPSSAPAVVSRNLLKAEFENYKPQILAKLENVKMATVID,failed
11,MSEPMSERERWQLELDKLQRGLQGDPFAFLGPQRDPGGEGGVLRAYLPGAQRVELLDEDGATLAELEQSDPGSGLFQRHLERLPPRYRLRVHWPDGVQESEDPYAFGPLLGELDLYLFAEGNHRQLASCLGAQLTRHEGVEGVRFAVWAPNAVRVSVVGDFNGWDGRRHPMRRRYPSGVWELFVPRLGEGELYKYELQGHDGLLPLKADPLALACETPPGTASKTCAALRHEWRDQDWLARRAERQGYAAP,failed
12,MSEPVFPTPEAAEDAFYAAFEARSLDDMMAVWARDDHVACIHPLAAPLNGRAAVAAGWRSMFGAAGRFRLQVKAVHEIRQADHVIRIVDEFLTIGDETAPRPAILATNVYRREADGWRMVLHHASPLQVGAKAGADTPPVVFH,not failed
13,MSEPYGKAFSLMRAEAEPAWRAYTHHAFVEGLKAGTLPREAFLHYLQQDYVFLIHFSRAWALAVVKSETHSEMLAAVGTVNALVAEEMQLHIGICEASGISQEALFATRERAENLAYTRFVLEAGYSGDLLDLLAALAPCVMGYGEIGKRLTAEATSTLYGDWIDTYGGDDYQAACKAVGTLLDDALERRLGAEFTSSPRWSRLCQTFHTATELEVGFWQMGLTP,not failed
